Measurements published in paper PMC5828221.

Biological target: purified recombinant histone H3 protein (Active Motif C110A), PARylated in vitro by PARP1 (UniProt P68431)

Question: For “human EZH2/EED/SUZ12/RbAp48/AEBP2 Complex (from UniProt Q15910 1-746; O75530 1-441; Q15022 1-739; Q09028 1-425; Q6ZN18 1-517)”, which decrease in H3K27me3 ELISA after in vitro methylation by the EZH2/PRC2 complex of PARylated against unmodified recombinant histone H3 (PARP1 removed beforehand) is on record?
Answer: The decrease in H3K27me3 ELISA after in vitro methylation by the EZH2/PRC2 complex of PARylated against unmodified recombinant histone H3 (PARP1 removed beforehand) was 30%.
